Columns and labels:
[1] = tested on: CNA; assay: Yeast two-hybrid assay; assay type: binding, human; settings: point mutant
Source text: (A) Yeast two-hybrid mating assay. TB50α yeast were co-transformed with pSH18-34T (bearing a lacZ reporter gene) and plasmids directing the expression of LexA alone or in fusion with peptide aptamers R5G42, R7G44 or R5G52. MB210a yeast were transformed with the selected cDNA library plasmids directing the expression of CNAβ, CNAγ, and NS5ATP2 truncated proteins. To obtain negative controls, MB210a yeast were also transformed with the empty prey plasmid (pJG4-5) and with pJG4-5 directing the expression of Ras and FKBP12 prey proteins. To obtain a positive control, MB210a yeast were transformed with pJG4-5 directing the expression of RG22 peptide aptamer prey fusion protein that interacts with LexA in the context of most LexA fusion proteins.
The inventors set out to map the R5G42 binding site on CNA. The CNA interacting clones selected in the yeast two-hybrid experiments corresponded to the carboxy-terminal regions of the beta and gamma isoforms, encompassing the calmodulin-binding domain and the auto-inhibitory domain (see FIG. 3B). […] The LexA-R5G52 bait protein may thus not be properly expressed and/or folded in this yeast two-hybrid setting.
The inventors explored the ability of R5G42 mutants having a one amino acid change as compared to R5G42, to bind to CNA beta and gamma C-Terminal fragments (FIG. 3b) and to NS5A-TP2. To this end, they proceeded to yeast-two hybrid assays as in example 3. CNA beta and gamma C-Terminal fragments (FIG. 3b) and NS5A-TP2 were cloned in three different plasmids (pSH18-34, pJK103 and pRB18-40), which differed from each other in the level of sensitivity of their promoter to the bait/prey complex formation, pSH18-34 having the highest sensitivity and pRB18-40 having the lowest.
The 5′ end of RH6 (upper case) matches part of the HA epitope tag and the 5′ ends of RH4, RH3 and RH7 (upper case) match the 5′ extremity of the ADH terminator. The PCR reactions was performed using pCMV-SPORT6-CnAβ as a template. CnAβCter Δ1, Δ2, CaM were constructed by combining oligonucleotides RH6/RH4, RH6/RH3, RH6/RH7, respectively. […]

[2] = tested on: tibialis anterior muscle atrophy; assay: In vivo tibia muscles denervation assay; settings: mice, plasmid electroporation in hind legs, 14 days post-denervation
Experimental: Vectors containing TRX, the R5G42, C7 or N9 aptamers or NaCl (control) were electroporated in mice hind legs (day 1) and an unilateral abolition of the motor innervation of the tibia muscles of the left hind leg was performed (day 3). After euthanasia of the mice (day 17) the tibialis anterior area was measured. Without denervation, the muscle area is relatively stable from one experiment to another (6.532.412+/−351.070, or 5.3% of variation). With denervation a reduced atrophy effect of about 27% and 48% is observed with aptamers R5G42 and N9 as compared to the atrophy effect obtained using the NaCl control (See FIGS. 19-20). The 100% of atrophy effect was evaluated using the data obtained with the NaCl control.
Another group of mice hind legs were electroporated after the injection of vectors containing TRX, the R5G42, C7 or N9 aptamers or with NaCl (control) at day 1. A unilateral abolition of the motor innervation of the tibia muscles of the left hind leg was performed at day 3 in order to induce a muscular atrophy. The mice were then euthanised at day 17, i.e. 14 days after sciatic denervation of the left hind leg. […] With denervation a reduced atrophy effect of about 27% and 48% is observed with aptamers R5G42 and N9 as compared to the atrophy effect obtained using the NaCl control (FIG. 18). […]

B1: N9: R5G42 mutant having a one amino acid change (SEQ ID 33) (protein)
chain: MVKQIESKTAFQEALDAAGDKLVVVDFSAAWCGPSAVTFAVCALGPCKMIKPFFHSLSEKYSNVIFLEVDVDDCQDVASECEVKCMPTFQFFKKGQKVGEFSGANKEKLEATINELV
modifications: Aptamer R5G42 mutant N9
two hybrid interaction phenotype against CNA compared to R5G42 [1]: dramatic reduction | reduced atrophy effect as compared to the NaCl control (tibialis anterior area) [2]: ~48%

— patent publication US8440804B2, “Polypeptides having modulatory effects on cells” (Ecole Normale Superieure de Lyon, priority 2006, dated 2013)
